± gives the standard deviation of the averaged measurements.
System: ATP
Assay: switch fluorescence ratio, 500 uM ATP over buffer (Cy3 cluster intensity, sum of 5 cycles each) (fold (ratio)); higher = stronger signal-on switching upon ATP binding; sequences stand for … in TCGTCGGCAGCGTCAGATGTGTATAAGAGACAGTTTTTTTTTTTTTTTTTTTTTTTTT…TC
Conditions: aptamer strand: ATP DNA aptamer (quencher-CACCTGGGGGAGTATTGCGGAGGAAGG + anchor), 100 nM annealed; ATP concentration: 500 uM
In short: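 Values give the fluorescence ratio for each switch-domain sequence, averaged from per-cluster ratios of summed target-cycle to summed buffer-cycle Cy3 intensity. The Cy3-labelled switching-strand clusters sat on a modified Illumina MiSeq flow-cell, were annealed to 100 nM quencher-labelled ATP aptamer, and were imaged in selection buffer, then after 15 min with 500 uM ATP at 22 °C. Five cycles ran with NaOH stripping and re-annealing between them, and clusters outside 100-1000 RFU were excluded.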
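Note: ATP exposure 15 min at 22 °C before imaging.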

Sequence: GATTTATTTG
- switch fluorescence ratio: 0.989 ± 0.048

Sequence: ACTTGCGCAG
- switch fluorescence ratio: 1.05 ± 0.043

Sequence: GGATGTAAGA
- switch fluorescence ratio: 1.1 ± 0.18

Sequence: GGGGAGGCCT
- switch fluorescence ratio: 1.01 ± 0.031

Sequence: ATCTGTACGA
- switch fluorescence ratio: 1.02 ± 0.027

Sequence: TTTGTTTGCA
- switch fluorescence ratio: 1.01 ± 0.054

Sequence: TTAAGTTCAT
- switch fluorescence ratio: 0.9806 ± 0.0067

Sequence: ATAAGATGCC
- switch fluorescence ratio: 0.963 ± 0.014

Sequence: GATATAAAGA
- switch fluorescence ratio: 0.994 ± 0.046

Sequence: CCAGAGGGGG
- switch fluorescence ratio: 0.985 ± 0.067

Sequence: ATTATTAATG
- switch fluorescence ratio: 0.9917 ± 0.008

Sequence: CTGGTCCGGT
- switch fluorescence ratio: 0.994 ± 0.018

Sequence: TTGCTAGGGC
- switch fluorescence ratio: 1.01 ± 0.033

Sequence: GGGGAATACA
- switch fluorescence ratio: 1.02 ± 0.017

Sequence: GGGCTATTAG
- switch fluorescence ratio: 0.98 ± 0.013

Sequence: TCCTTGACTT
- switch fluorescence ratio: 1.15 ± 0.26

Sequence: CCTGATTTGG
- switch fluorescence ratio: 0.969 ± 0.03

Sequence: GCTGAAGGAT
- switch fluorescence ratio: 1 ± 0.0058

Sequence: TACATTATAG
- switch fluorescence ratio: 1.01 ± 0.036

Sequence: GCATCATTCA
- switch fluorescence ratio: 1.03 ± 0.017

Sequence: TTTCTAGGGT
- switch fluorescence ratio: 0.994 ± 0.017

Sequence: TGCTCTACCT
- switch fluorescence ratio: 1.18 ± 0.057

Sequence: ATTCGGGGG
- switch fluorescence ratio: 0.927 ± 0.064

Sequence: GGGGGACTAG
- switch fluorescence ratio: 1.02 ± 0.024

Sequence: GGTGGGGAGC
- switch fluorescence ratio: 1 ± 0.021

Sequence: CAAGGTATTG
- switch fluorescence ratio: 0.987 ± 0.017

Sequence: TTTACCGAAT
- switch fluorescence ratio: 1.05 ± 0.017

Sequence: ATGATGGGT
- switch fluorescence ratio: 1.01 ± 0.028

Sequence: TGGGCAGGAC
- switch fluorescence ratio: 1.41 ± 0.49

Sequence: AAAAAATTGC
- switch fluorescence ratio: 1.04 ± 0.058

Sequence: AAAGGTTTGT
- switch fluorescence ratio: 1.02 ± 0.024

Sequence: AATTAAAGGG
- switch fluorescence ratio: 1.03 ± 0.066

Sequence: CAAGAACGTT
- switch fluorescence ratio: 0.997 ± 0.018

Sequence: CAAAAAGTTG
- switch fluorescence ratio: 1.02 ± 0.093

Sequence: GGCTGTTATT
- switch fluorescence ratio: 0.986 ± 0.039

Sequence: ACAGTAAGAG
- switch fluorescence ratio: 1.03 ± 0.049

Sequence: GCTTTGTATG
- switch fluorescence ratio: 0.9678 ± 0.0094

Sequence: TGATGCTAGG
- switch fluorescence ratio: 1.01 ± 0.021

Sequence: TTGCAAAACT
- switch fluorescence ratio: 1.32 ± 0.51

Sequence: TAAAATTTAG
- switch fluorescence ratio: 1 ± 0.04

Sequence: AGGGGAATGG
- switch fluorescence ratio: 0.997 ± 0.015

Sequence: TGCATAAGAA
- switch fluorescence ratio: 0.955 ± 0.03

Sequence: CCTTTTTTTG
- switch fluorescence ratio: 1.01 ± 0.024

Sequence: CCGAGGGGGT
- switch fluorescence ratio: 1.81 ± 1.1

Sequence: GGGGCTGCAG
- switch fluorescence ratio: 1.09 ± 0.11

Sequence: GAGTAGCGGT
- switch fluorescence ratio: 1.01 ± 0.026

Sequence: TTTTAGAGAG
- switch fluorescence ratio: 0.997 ± 0.019

Sequence: TTAAGGGCGC
- switch fluorescence ratio: 1 ± 0.084

Sequence: CGGTAAGGCG
- switch fluorescence ratio: 0.947 ± 0.11

Sequence: CCTTCCGGGG
- switch fluorescence ratio: 2.07 ± 0.23

Sequence: TATTAAAGGG
- switch fluorescence ratio: 0.985 ± 0.017

Sequence: TTCGTATGGG
- switch fluorescence ratio: 1.09 ± 0.12

Sequence: CCTTTAGGGG
- switch fluorescence ratio: 0.997 ± 0.037

Sequence: TTATTCGGTA
- switch fluorescence ratio: 0.9978 ± 0.0065

Sequence: TGACAGTCGT
- switch fluorescence ratio: 0.977 ± 0.024

Sequence: TTTAGGTTTG
- switch fluorescence ratio: 1 ± 0.066

Sequence: AGGTTAGGTG
- switch fluorescence ratio: 1.42 ± 0.34

Sequence: TCCGATTGGG
- switch fluorescence ratio: 0.9801 ± 0.0071

Sequence: GGGGGAATCC
- switch fluorescence ratio: 1.06 ± 0.08

Sequence: TTGTGAATGT
- switch fluorescence ratio: 0.975 ± 0.016

Sequence: TTTGTAAAGA
- switch fluorescence ratio: 1 ± 0.018

Sequence: CACGGAGCAG
- switch fluorescence ratio: 2.52 ± 0.15

Sequence: GTGGAAGGTT
- switch fluorescence ratio: 0.995 ± 0.014

Sequence: AGGCTTATTT
- switch fluorescence ratio: 1 ± 0.023

Sequence: CATTTGGGGG
- switch fluorescence ratio: 0.977 ± 0.025

Sequence: GGGTGGGGAC
- switch fluorescence ratio: 0.975 ± 0.015

Sequence: TGAGTAAGGT
- switch fluorescence ratio: 0.995 ± 0.04

Sequence: TCGATGGCTT
- switch fluorescence ratio: 1.05 ± 0.019

Sequence: GGAGAGGGGT
- switch fluorescence ratio: 0.99 ± 0.035

Sequence: GCAGAGGGGA
- switch fluorescence ratio: 0.981 ± 0.039

Sequence: GTTGTTATGG
- switch fluorescence ratio: 0.988 ± 0.017

Sequence: AGGGGGTAGT
- switch fluorescence ratio: 0.983 ± 0.011

Sequence: TATCACTTCC
- switch fluorescence ratio: 1.96 ± 0.023

Sequence: TTACGGCAGG
- switch fluorescence ratio: 1.13 ± 0.092

Sequence: CATGTCGGTT
- switch fluorescence ratio: 0.991 ± 0.019

Sequence: TAATGCCTGC
- switch fluorescence ratio: 1 ± 0.093

Sequence: TCGTGGGGGT
- switch fluorescence ratio: 0.979 ± 0.045

Sequence: TTTTAAGCAA
- switch fluorescence ratio: 1.53 ± 0.17

Sequence: CGGGTAGTTA
- switch fluorescence ratio: 0.99 ± 0.029

Sequence: ATTCGCTTCT
- switch fluorescence ratio: 1.02 ± 0.013

Sequence: TTGACTTTTT
- switch fluorescence ratio: 0.991 ± 0.016

Sequence: TTTTTAATAC
- switch fluorescence ratio: 1.33 ± 0.29

Sequence: TGTCAGTTAT
- switch fluorescence ratio: 0.979 ± 0.031

Sequence: TTTTTTCCGC
- switch fluorescence ratio: 1.34 ± 0.35

Sequence: CGAAGGTTTA
- switch fluorescence ratio: 0.9981 ± 0.0018

Sequence: ACATGTTATT
- switch fluorescence ratio: 1.01 ± 0.035

Sequence: CGTGTTTTAT
- switch fluorescence ratio: 0.998 ± 0.039

Sequence: AAGTTTGGGA
- switch fluorescence ratio: 1.07 ± 0.091

Sequence: AAAATCATTG
- switch fluorescence ratio: 0.9615 ± 0.0027

Sequence: ATGGTGCTGG
- switch fluorescence ratio: 0.983 ± 0.035

Sequence: GAAGACGGGA
- switch fluorescence ratio: 1.01 ± 0.045

Sequence: TTCGGTACTG
- switch fluorescence ratio: 1.01 ± 0.033

Sequence: ATTTGGTAGG
- switch fluorescence ratio: 1 ± 0.012

Sequence: TTTATGTCTC
- switch fluorescence ratio: 0.992 ± 0.029

Sequence: GGTGTTTTG
- switch fluorescence ratio: 0.9847 ± 0.007

Sequence: AAGGCGAGTA
- switch fluorescence ratio: 0.997 ± 0.017

Sequence: GAGGAAGGAA
- switch fluorescence ratio: 1.04 ± 0.062

Sequence: AGATGCCGGA
- switch fluorescence ratio: 1 ± 0.027

Sequence: ACGTTAATGC
- switch fluorescence ratio: 2.09 ± 0.21

Sequence: CATGTTTGCC
- switch fluorescence ratio: 1.02 ± 0.015

— the supplement of paper PMC10126150
